Measured values published in US20140072613A1, “Compositions and Methods for Treating Cutaneous Scarring” (priority 2012, published 2014).

Tests used:
Assay in all cases: cell-based or functional assay
FAK(h) (human) = FAK(h) (human) (UniProt Q05397)
GRK7(h) (human) = target: T1, GRK7(h) (human) (UniProt Q8WTQ7)
T1 sequence (looked up): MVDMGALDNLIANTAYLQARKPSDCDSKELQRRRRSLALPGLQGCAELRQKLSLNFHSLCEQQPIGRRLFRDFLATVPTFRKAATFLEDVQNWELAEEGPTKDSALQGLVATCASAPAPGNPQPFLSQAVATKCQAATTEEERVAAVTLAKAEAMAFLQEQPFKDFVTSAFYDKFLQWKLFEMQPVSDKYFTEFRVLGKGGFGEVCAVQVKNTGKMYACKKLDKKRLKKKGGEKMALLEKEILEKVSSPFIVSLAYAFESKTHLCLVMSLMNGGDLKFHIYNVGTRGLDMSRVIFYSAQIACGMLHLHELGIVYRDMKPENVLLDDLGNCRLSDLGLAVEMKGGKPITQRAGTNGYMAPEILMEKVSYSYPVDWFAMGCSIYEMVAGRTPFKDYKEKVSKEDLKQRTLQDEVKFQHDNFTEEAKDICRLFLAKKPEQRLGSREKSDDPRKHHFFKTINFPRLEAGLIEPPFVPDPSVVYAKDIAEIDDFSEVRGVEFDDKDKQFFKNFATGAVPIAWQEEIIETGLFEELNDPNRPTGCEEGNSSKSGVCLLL

PKCµ(h) (human) = target: T2, PKCµ(h) (human) (UniProt Q15139)
T2 sequence (looked up): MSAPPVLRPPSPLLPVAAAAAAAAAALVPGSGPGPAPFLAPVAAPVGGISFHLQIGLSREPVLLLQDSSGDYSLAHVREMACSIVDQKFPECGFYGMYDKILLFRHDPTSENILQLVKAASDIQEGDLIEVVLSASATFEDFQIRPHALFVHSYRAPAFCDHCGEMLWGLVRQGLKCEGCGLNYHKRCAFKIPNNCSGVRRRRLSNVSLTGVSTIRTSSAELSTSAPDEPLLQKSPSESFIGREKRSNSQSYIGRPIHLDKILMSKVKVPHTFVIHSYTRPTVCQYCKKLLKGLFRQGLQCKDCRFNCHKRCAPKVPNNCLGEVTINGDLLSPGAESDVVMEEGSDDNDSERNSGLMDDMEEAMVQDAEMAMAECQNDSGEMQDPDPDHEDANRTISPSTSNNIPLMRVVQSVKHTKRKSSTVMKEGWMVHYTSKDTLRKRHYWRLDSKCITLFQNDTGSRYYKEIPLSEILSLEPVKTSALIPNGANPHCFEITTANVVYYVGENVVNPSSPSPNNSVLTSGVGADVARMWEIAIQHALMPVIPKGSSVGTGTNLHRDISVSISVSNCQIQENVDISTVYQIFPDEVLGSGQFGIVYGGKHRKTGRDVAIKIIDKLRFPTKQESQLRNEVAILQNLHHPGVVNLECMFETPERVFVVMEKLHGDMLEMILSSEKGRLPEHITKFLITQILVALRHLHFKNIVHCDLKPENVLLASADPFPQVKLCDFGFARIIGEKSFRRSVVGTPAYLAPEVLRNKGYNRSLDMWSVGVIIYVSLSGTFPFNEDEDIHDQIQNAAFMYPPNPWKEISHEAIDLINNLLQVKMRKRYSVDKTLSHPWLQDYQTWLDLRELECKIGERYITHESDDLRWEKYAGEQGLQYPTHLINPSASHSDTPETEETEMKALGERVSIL

Rsk1(h) (human) = Rsk1(h) (human) (UniProt Q15418)
Rsk1(h) (human), sequence (Q15418 whole entry): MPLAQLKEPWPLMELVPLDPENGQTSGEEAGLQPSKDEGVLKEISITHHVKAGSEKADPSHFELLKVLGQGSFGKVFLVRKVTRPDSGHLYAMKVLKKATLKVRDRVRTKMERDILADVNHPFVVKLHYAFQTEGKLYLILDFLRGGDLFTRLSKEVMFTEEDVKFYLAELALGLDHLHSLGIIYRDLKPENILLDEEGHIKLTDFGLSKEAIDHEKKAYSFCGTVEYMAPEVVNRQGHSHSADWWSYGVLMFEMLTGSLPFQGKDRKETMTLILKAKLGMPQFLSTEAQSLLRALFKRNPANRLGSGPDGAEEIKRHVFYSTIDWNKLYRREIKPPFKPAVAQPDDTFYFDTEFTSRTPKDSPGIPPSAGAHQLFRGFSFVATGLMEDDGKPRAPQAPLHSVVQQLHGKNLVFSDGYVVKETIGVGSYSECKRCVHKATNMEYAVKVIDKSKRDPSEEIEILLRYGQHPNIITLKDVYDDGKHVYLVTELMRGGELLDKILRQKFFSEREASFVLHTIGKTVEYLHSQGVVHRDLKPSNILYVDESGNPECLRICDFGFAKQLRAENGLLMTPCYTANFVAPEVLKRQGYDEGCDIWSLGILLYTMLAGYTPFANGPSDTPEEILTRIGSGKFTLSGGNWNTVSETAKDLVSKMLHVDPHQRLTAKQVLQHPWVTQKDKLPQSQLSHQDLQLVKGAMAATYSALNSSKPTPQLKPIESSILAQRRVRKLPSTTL

TrkB(h) (human) = TrkB(h) (human) (UniProt Q16620)
TrkB(h) (human), sequence (Q16620 455-822 limits assumed): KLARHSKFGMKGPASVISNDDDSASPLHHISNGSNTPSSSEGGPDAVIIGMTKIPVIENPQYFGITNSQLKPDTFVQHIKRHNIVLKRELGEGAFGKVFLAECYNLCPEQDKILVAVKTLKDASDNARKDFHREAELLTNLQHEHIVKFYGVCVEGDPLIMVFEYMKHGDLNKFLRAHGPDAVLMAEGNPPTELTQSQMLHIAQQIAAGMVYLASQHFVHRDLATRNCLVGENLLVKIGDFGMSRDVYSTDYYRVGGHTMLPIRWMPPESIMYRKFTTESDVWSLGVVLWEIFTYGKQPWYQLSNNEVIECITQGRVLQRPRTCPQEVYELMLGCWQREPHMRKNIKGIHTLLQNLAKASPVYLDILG

ULK2(h) (human) = target: T3, ULK2(h) (human) (UniProt Q8IYT8)
T3 sequence (looked up): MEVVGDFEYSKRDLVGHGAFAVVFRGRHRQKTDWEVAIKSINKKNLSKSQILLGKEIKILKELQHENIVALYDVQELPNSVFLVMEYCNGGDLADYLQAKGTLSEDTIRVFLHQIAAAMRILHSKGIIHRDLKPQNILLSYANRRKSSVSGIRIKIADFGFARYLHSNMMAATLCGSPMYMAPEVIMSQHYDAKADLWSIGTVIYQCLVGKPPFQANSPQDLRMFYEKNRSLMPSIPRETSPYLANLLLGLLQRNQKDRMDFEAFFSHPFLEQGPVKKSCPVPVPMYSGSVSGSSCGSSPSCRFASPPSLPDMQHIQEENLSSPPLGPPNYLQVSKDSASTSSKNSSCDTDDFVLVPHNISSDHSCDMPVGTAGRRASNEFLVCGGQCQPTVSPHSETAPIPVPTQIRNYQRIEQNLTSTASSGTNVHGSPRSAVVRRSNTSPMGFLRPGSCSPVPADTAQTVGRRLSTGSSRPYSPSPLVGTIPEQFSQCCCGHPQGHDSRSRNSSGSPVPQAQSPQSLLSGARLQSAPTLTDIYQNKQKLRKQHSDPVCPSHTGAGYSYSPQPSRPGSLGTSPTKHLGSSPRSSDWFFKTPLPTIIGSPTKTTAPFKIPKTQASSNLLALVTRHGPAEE

ZAP-70(h) (human) = ZAP-70(h) (human) (UniProt P43403)
ZAP-70(h) (human), sequence (P43403 whole entry): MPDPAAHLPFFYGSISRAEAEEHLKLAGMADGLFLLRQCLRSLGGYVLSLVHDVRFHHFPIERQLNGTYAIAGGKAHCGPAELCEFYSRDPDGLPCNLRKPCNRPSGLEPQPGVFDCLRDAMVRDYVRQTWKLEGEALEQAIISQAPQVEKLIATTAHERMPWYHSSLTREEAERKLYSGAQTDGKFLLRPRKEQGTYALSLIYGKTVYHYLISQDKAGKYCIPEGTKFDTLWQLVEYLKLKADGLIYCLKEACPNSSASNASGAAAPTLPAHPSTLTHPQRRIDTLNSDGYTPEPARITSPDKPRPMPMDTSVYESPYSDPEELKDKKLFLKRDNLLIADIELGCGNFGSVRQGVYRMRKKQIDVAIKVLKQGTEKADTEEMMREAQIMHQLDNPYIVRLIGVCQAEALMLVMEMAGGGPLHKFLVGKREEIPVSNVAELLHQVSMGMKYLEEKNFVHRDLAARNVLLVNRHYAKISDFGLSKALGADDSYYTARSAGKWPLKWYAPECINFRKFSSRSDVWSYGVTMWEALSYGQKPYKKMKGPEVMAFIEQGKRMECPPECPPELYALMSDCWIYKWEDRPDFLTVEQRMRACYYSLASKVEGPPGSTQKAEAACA

FAK(h) (human), sequence (Q05397 whole entry): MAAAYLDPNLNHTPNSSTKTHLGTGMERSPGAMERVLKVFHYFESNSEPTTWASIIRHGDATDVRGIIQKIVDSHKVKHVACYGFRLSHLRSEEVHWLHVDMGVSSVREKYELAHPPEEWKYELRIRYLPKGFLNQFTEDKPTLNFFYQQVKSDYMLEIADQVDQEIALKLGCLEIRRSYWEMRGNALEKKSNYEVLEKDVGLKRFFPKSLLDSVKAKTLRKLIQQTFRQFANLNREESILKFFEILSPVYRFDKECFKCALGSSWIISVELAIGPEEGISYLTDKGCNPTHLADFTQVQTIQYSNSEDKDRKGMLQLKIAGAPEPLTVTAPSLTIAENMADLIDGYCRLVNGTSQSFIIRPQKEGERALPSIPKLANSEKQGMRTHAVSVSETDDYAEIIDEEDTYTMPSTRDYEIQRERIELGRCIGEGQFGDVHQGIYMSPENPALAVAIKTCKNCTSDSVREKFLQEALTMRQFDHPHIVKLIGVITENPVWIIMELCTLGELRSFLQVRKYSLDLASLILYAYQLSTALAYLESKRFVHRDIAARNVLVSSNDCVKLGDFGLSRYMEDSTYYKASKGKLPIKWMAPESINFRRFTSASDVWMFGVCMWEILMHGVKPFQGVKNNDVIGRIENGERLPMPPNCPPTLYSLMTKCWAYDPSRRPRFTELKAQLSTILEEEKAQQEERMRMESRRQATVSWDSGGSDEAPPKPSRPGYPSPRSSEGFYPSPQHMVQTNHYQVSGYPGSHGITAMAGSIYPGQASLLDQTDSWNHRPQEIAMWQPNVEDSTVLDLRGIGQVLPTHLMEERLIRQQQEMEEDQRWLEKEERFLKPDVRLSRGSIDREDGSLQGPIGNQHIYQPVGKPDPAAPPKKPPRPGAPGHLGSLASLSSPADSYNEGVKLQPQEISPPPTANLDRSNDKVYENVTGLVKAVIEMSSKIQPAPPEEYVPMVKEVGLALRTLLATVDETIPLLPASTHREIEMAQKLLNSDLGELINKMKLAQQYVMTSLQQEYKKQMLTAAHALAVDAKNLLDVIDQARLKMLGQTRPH

% activity, 100 µM (FAK(h) (human)): 94%
% activity, 100 µM (GRK7(h) (human)): 93%
% activity, 100 µM (PKCµ(h) (human)): 10%
% activity, 100 µM (Rsk1(h) (human)): 34%
% activity, 100 µM (TrkB(h) (human)): 12%
inhibition of kinase activity at 100 µM (TrkB(h) (human)): > 65%
% activity, 100 µM (ULK2(h) (human)): 124%
% activity, 100 µM (ZAP-70(h) (human)): 1%
Substance: MMI-0500 (peptide)
